We go through twelve molecules from patent US20190352423A1 (Genmab, published 2019).

Sequences and labels used below:
T1: recombinant human CD63 second extracellular domain (Ala 103-Val 203) fused with a polyhistidine tag at the … (human, UniProt P08962 103-203)
T1 construct: range 103-203; Bought from Creative BioMart; also called human His-tagged CD63; soluble CD63
T1 sequence (looked up): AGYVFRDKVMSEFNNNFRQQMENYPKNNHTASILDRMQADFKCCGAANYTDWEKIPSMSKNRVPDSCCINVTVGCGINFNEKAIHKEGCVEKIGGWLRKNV

B1: wild type IgG1-CD63 (antibody, V domains shown)
VH: EVQLQQSGPELVKPGASVKMSCKASGYTFTSYVMHWVRQTPGQGLEWIGYITPYNDGTKYNEKFKGKATLTSDKSSSTAYMELSSLTSEDSAVYYCVGGDNYYYAMDYWGQGTSVTVSA
VL: NIMVTQSPSSLAVSAGEKVTMSCKSSQSVLYSSNQKNYLAWYQQKPGQSPKLLIYWASTRVSGVPDRFTGSGSGTDFTLTISRVQAEDLAVYYCHQYFSSFTFGSGTKLEIKR
notes: Mouse 2192 variable domains on human IgG1 constant domains (heavy chain with K409R or F405L) and a human light chain constant domain; also called wt IgG1-CD63; WT
B2: IgG1-CD63N74H (antibody, V domains shown)
VH: EVQLQQSGPELVKPGASVKMSCKASGYTFTSYVMHWVRQTPGQGLEWIGYITPYHDGTKYNEKFKGKATLTSDKSSSTAYMELSSLTSEDSAVYYCVGGDNYYYAMDYWGQGTSVTVSA
VL: NIMVTQSPSSLAVSAGEKVTMSCKSSQSVLYSSNQKNYLAWYQQKPGQSPKLLIYWASTRVSGVPDRFTGSGSGTDFTLTISRVQAEDLAVYYCHQYFSSFTFGSGTKLEIKR
notes: also called anti-CD63-N74H
B3: IgG1-CD63 affinity variant LY51H (antibody, V domains shown)
VH: EVQLQQSGPELVKPGASVKMSCKASGYTFTSYVMHWVRQTPGQGLEWIGYITPYNDGTKYNEKFKGKATLTSDKSSSTAYMELSSLTSEDSAVYYCVGGDNYYYAMDYWGQGTSVTVSA
VL: NIMVTQSPSSLAVSAGEKVTMSCKSSQSVLHSSNQKNYLAWYQQKPGQSPKLLIYWASTRVSGVPDRFTGSGSGTDFTLTISRVQAEDLAVYYCHQYFSSFTFGSGTKLEIKR
notes: As m1 with one histidine substitution in the light chain
B4: IgG1-CD63 affinity variant P72H (antibody, V domains shown)
VH: EVQLQQSGPELVKPGASVKMSCKASGYTFTSYVMHWVRQTPGQGLEWIGYITHYNDGTKYNEKFKGKATLTSDKSSSTAYMELSSLTSEDSAVYYCVGGDNYYYAMDYWGQGTSVTVSA
VL: NIMVTQSPSSLAVSAGEKVTMSCKSSQSVLYSSNQKNYLAWYQQKPGQSPKLLIYWASTRVSGVPDRFTGSGSGTDFTLTISRVQAEDLAVYYCHQYFSSFTFGSGTKLEIKR
B5: IgG1-CD63 affinity variant LS52 (antibody, V domains shown)
VH: EVQLQQSGPELVKPGASVKMSCKASGYTFTSYVMHWVRQTPGQGLEWIGYITPYNDGTKYNEKFKGKATLTSDKSSSTAYMELSSLTSEDSAVYYCVGGDNYYYAMDYWGQGTSVTVSA
VL: NIMVTQSPSSLAVSAGEKVTMSCKSSQSVLYHSNQKNYLAWYQQKPGQSPKLLIYWASTRVSGVPDRFTGSGSGTDFTLTISRVQAEDLAVYYCHQYFSSFTFGSGTKLEIKR
notes: as for B3
B6: IgG1-CD63 affinity variant LV49H (antibody, V domains shown)
VH: EVQLQQSGPELVKPGASVKMSCKASGYTFTSYVMHWVRQTPGQGLEWIGYITPYNDGTKYNEKFKGKATLTSDKSSSTAYMELSSLTSEDSAVYYCVGGDNYYYAMDYWGQGTSVTVSA
VL: NIMVTQSPSSLAVSAGEKVTMSCKSSQSHLYSSNQKNYLAWYQQKPGQSPKLLIYWASTRVSGVPDRFTGSGSGTDFTLTISRVQAEDLAVYYCHQYFSSFTFGSGTKLEIKR
notes: as for B3
B7: IgG1-CD63 affinity variant Y79H (antibody, V domains shown)
VH: EVQLQQSGPELVKPGASVKMSCKASGYTFTSYVMHWVRQTPGQGLEWIGYITPYNDGTKHNEKFKGKATLTSDKSSSTAYMELSSLTSEDSAVYYCVGGDNYYYAMDYWGQGTSVTVSA
VL: NIMVTQSPSSLAVSAGEKVTMSCKSSQSVLYSSNQKNYLAWYQQKPGQSPKLLIYWASTRVSGVPDRFTGSGSGTDFTLTISRVQAEDLAVYYCHQYFSSFTFGSGTKLEIKR
notes: As m1 with one histidine substitution
B8: IgG1-CD63 affinity variant Y121H (antibody, V domains shown)
VH: EVQLQQSGPELVKPGASVKMSCKASGYTFTSYVMHWVRQTPGQGLEWIGYITPYNDGTKYNEKFKGKATLTSDKSSSTAYMELSSLTSEDSAVYYCVGGDNHYYAMDYWGQGTSVTVSA
VL: NIMVTQSPSSLAVSAGEKVTMSCKSSQSVLYSSNQKNYLAWYQQKPGQSPKLLIYWASTRVSGVPDRFTGSGSGTDFTLTISRVQAEDLAVYYCHQYFSSFTFGSGTKLEIKR
notes: as for B7
B9: IgG1-CD63 affinity variant T71H (antibody, V domains shown)
VH: EVQLQQSGPELVKPGASVKMSCKASGYTFTSYVMHWVRQTPGQGLEWIGYIHPYNDGTKYNEKFKGKATLTSDKSSSTAYMELSSLTSEDSAVYYCVGGDNYYYAMDYWGQGTSVTVSA
VL: NIMVTQSPSSLAVSAGEKVTMSCKSSQSVLYSSNQKNYLAWYQQKPGQSPKLLIYWASTRVSGVPDRFTGSGSGTDFTLTISRVQAEDLAVYYCHQYFSSFTFGSGTKLEIKR
B10: IgG1-CD63 affinity variant Y127 (antibody, V domains shown)
VH: EVQLQQSGPELVKPGASVKMSCKASGYTFTSYVMHWVRQTPGQGLEWIGYITPYNDGTKYNEKFKGKATLTSDKSSSTAYMELSSLTSEDSAVYYCVGGDNYYYAMDHWGQGTSVTVSA
VL: NIMVTQSPSSLAVSAGEKVTMSCKSSQSVLYSSNQKNYLAWYQQKPGQSPKLLIYWASTRVSGVPDRFTGSGSGTDFTLTISRVQAEDLAVYYCHQYFSSFTFGSGTKLEIKR
notes: as for B7
B11: IgG1-CD63 affinity variant Y46 (antibody, V domains shown)
VH: EVQLQQSGPELVKPGASVKMSCKASGHTFTSYVMHWVRQTPGQGLEWIGYITPYNDGTKYNEKFKGKATLTSDKSSSTAYMELSSLTSEDSAVYYCVGGDNYYYAMDYWGQGTSVTVSA
VL: NIMVTQSPSSLAVSAGEKVTMSCKSSQSVLYSSNQKNYLAWYQQKPGQSPKLLIYWASTRVSGVPDRFTGSGSGTDFTLTISRVQAEDLAVYYCHQYFSSFTFGSGTKLEIKR
notes: as for B7
B12: anti-CD63-LN54H (antibody, V domains shown)
VH: EVQLQQSGPELVKPGASVKMSCKASGYTFTSYVMHWVRQTPGQGLEWIGYITPYNDGTKYNEKFKGKATLTSDKSSSTAYMELSSLTSEDSAVYYCVGGDNYYYAMDYWGQGTSVTVSA
VL: NIMVTQSPSSLAVSAGEKVTMSCKSSQSVLYSSHQKNYLAWYQQKPGQSPKLLIYWASTRVSGVPDRFTGSGSGTDFTLTISRVQAEDLAVYYCHQYFSSFTFGSGTKLEIKR

In one test the target is T1, recombinant human CD63 second …. Nature of the test: ELISA: antibody (1 µg/mL) captured on goat anti-human IgG, recombinant human His-tagged CD63 serially diluted (x axis, µg/mL CD63), detected with anti-poly-histidine-biotin, OD 405 nm. An excerpt: To improve efficacy of ADCs, a bispecific ADC was generated that specifically binds to a target protein (T) with one Fab-arm, while its second Fab-arm binds an effector protein (E), that facilitates internalization and lysosomal delivery of the cytotoxic payload. The resulting bsADC should induce cytotoxicity in cells that express both T and E. Some cytotoxicity may also be induced in cells that express T but not E, whereas the bsADC should not induce cytotoxicity in cells that express E but not TCD63 is used as effector protein (E). To ensure tumor specificity of the bsAb, the anti-CD63 arm (E) of the bsAb should preferably not bind and internalize in the absence of the tumor-specific arm (T) or only do this to a very limited degree. […] In short, ELISA plates (Greiner) were coated overnight at 4° C. with 0.8 μg/mL goat anti-human IgG (Jackson). […] Serially diluted (1-0.0005 μg/mL) recombinant human CD63 (Creative Biomart) was added followed by 1 μg/mL mouse anti-poly-histidine-biotin (R&D). The reaction was visualized using ABTS and stopped with oxalic acid. […] at 405 nm was measured and depicted using Graph Pad Prism 6 software.
Regarding B1, the “EC50 (read off the curve)” value was approximately 0.01 µg/mL.

As for B2, the concentration giving a half-maximal response (EC50 (read off the curve)) was approximately 0.06 µg/mL.

Another test shares this target. Put plainly: BLI (Octet HTX), IgG on anti-human Fc sensors, His-tagged CD63 as analyte, 30 C. How it is done: Association and dissociation kinetics of human His-tagged CD63 (100 nM, 50 nM, 25 nM and 12.5 nM, concentrations were calculated using the predicted molecular weight of 13 kDa) were determined in Sample Diluent (ForteBio), using an association time of 1000 s, a dissociation time of 2000 s and a shaker speed of 1000 rpm at 30° C. Data traces were corrected using a reference sensor exposed to Sample Diluent only during the association and dissociation steps, the Y-axis was aligned to baseline and Inter-step correction as well as Savitzky-Golay filtering were applied. The association rate constant Kₒₙ (1/Ms), dissociation rate constant Kdis (1/s) and equilibrium dissociation constant KD (M) were determined with ForteBio Data Analysis Software v8.1, using the 1:1 model and a global full fit.
Take B1: the Kd stood at 0.54 nM, the koff was 0.00011 s⁻¹ and the kon worked out at 200000 M⁻¹ s⁻¹.

For the molecule B3, the Kd worked out at 20 nM, the koff was found to be 0.0019 s⁻¹ and the kon was 98000 M⁻¹ s⁻¹.

B4: the dissociation constant (Kd) stood at 3.3 nM, the koff was determined as 0.00057 s⁻¹ and the kon was determined as 170000 M⁻¹ s⁻¹.

For the molecule B5, the equilibrium dissociation constant (Kd) was found to be 0.36 nM, the off-rate constant (koff) came to 6.3e-05 s⁻¹ and the kon came to 170000 M⁻¹ s⁻¹.

As to B6, the Kd is 27 nM.

With B7, the Kd is 0.67 nM, the koff was 0.00014 s⁻¹ and the kon is 210000 M⁻¹ s⁻¹.

As for B8, the Kd stood at 20 nM, the koff stood at 0.0014 s⁻¹ and the kon was found to be 70000 M⁻¹ s⁻¹.

On to B9, for which the Kd amounted to 7.3 nM, the koff came out at 0.0011 s⁻¹ and the kon was 150000 M⁻¹ s⁻¹.

Regarding B10, the Kd was 0.54 nM, the koff is 0.00011 s⁻¹ and the kon came to 200000 M⁻¹ s⁻¹.

B2: the Kd is 4.1 nM, the koff came out at 0.00069 s⁻¹ and the kon came out at 170000 M⁻¹ s⁻¹.

Regarding B11, the Kd stood at 0.78 nM, the koff is 0.00016 s⁻¹ and the kon amounted to 200000 M⁻¹ s⁻¹.

For B12, the Kd worked out at 2 nM, the koff is 0.00039 s⁻¹ and the kon stood at 190000 M⁻¹ s⁻¹.
